{"source": "patent US20040253233A1", "about": "(CENTRO DE INMUNOLOGIA MOLECULAR CIM, published 2004)", "molecular_target": "T1, murine monoclonal antibody P3", "T1 construct": "Murine IgM with kappa light chain from hybridoma ECACC 94113026, coated on the ELISA plate; FR4 segments are printed short; also called Mab P3; MAb P3", "T1 sequence (VH, as listed by the source, chain 1 of 2)": "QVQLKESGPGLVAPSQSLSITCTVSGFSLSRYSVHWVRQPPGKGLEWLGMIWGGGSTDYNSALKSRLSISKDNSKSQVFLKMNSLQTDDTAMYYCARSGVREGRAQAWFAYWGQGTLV", "T1 sequence (V domain, as listed by the source, chain 2 of 2)": "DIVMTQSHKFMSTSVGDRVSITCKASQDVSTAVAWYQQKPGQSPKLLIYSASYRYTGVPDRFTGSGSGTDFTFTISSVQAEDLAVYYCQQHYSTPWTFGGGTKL", "assay": "ELISA, plate coated with Mab P3, purified chimeric 1E10 detected with goat anti-human antibody-alkaline phosphatase, absorbance at 405 nm", "method": "For recombinant MAb 1 E10, Microtiter plates were coated with Mab P3. After washing with PBST (saline phosphate buffered solution containing 0.05% Tween 20), unspecific binding was blockade with bovine sera albumin (BSA) 1% in PBST, incubated for one hour at 37° C.\nThe wells were washed and incubated for 1 hour at 37° C. with purified recombinant Mab 1E10. The wells were washed with PBST and a goat anti-human antibody conjugated with alkaline phosphatase was added and incubated at 37° C. for one hour. Finally, the wells were washed with PBST and the substrate buffer containing p-nitrophenylphosphate was added."}
{"binder": "chimeric Mab 1E10 (antibody, V domains shown, FR4 segments are printed short, so the variable domains may lack their last residues; also called Mab 1E10 chimeric; recombinant MAb 1E10) VH: QVQLQQSGAELVKPGASVKLSCKASGYTFTSYDINWVRQRPEQGLEWIGWIFPGDGSTKYNEKFKGKATLTTDKSSSTAYMQLSRLTSEDSAVYFCAREDYYDNSYYFDYWGQGTTLTV VL: DIQMTQTTSSLSASLGDRVTISCRASQDISNYLNWYQQKPDGTVKLLIYYTSRLHSGVPSRFSGSGSGTDYSLTISNLEQEDIATYFCQQGNTLPWTFGGGTKLESK", "values": [{"measurement": "binding result", "result": "binds"}]}
